Results on one protein are retold here after paper doi:10.1101/2023.03.12.532276 (bioRxiv, 2023).

The series deals with the molecule itself. Nature of the series: SAXS with online size exclusion.

B1: ELF3 PrLD Q7 (prion-like domain of EARLY FLOWERING 3, residues 388-625, 7 glutamines, ecotype Columbia) (domain or fragment)
chain: LLPSEFLVKPPLPHVVVKQRGDSEKTDQHKMESSAENVVGRLSNQGHHQQSNYMPFANNPPASPAPNGYCFPPQPPPSGNHQQWLIPVMSPSEGLIYKPHPGMAHTGHYGGYYGHYMPTPMVMPQYHPGMGFPPPGNGYFPPYGMMPTIMNPYCSSQQQQQQQPNEQMNQFGHPGNLQNTQQQQQRSDNEPAPQQQQQPTKSYPRARKSRQGSTGSSPSGPQGISGSKSFRPFAAVDE
Consider B1, for which the binding result is “binds”.
